For experiment [1], the target named is T1, chL1-S1 chimeric human/murine HER-3 ECD Fc fusion (human; murine, UniProt P21860 20-632).
T1 construct: also called chLl-Sl; chimeric ECD comprising human L1-S1 domains and murine L2-S2 domains; not shown: murine IgG2A hinge, CH2, and CH3 region (pmuFc2ANL vector)
T1 chain: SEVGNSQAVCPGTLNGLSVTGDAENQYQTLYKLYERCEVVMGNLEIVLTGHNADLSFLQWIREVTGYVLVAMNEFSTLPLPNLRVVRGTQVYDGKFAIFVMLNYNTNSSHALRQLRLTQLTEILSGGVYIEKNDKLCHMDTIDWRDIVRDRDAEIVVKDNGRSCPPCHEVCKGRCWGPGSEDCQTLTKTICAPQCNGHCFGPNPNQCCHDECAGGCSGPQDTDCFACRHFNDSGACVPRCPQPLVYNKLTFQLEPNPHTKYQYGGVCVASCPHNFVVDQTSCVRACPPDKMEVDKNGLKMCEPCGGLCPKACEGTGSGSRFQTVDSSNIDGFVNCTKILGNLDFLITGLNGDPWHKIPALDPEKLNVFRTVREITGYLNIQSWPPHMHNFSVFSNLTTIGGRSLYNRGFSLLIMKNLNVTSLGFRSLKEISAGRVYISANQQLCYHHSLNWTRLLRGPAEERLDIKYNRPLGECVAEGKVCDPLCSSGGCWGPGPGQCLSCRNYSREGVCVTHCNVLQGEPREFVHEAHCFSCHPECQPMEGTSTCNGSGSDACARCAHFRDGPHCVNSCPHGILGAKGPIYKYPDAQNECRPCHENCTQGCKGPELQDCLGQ
The experiment in a line: ELISA on chL1-S1 Fc (Figure 30). Background: In an ELISA, binding on a coated surface is turned into a signal by an enzyme label.

Experiment [2] concerns the target T2, chL2-S2 chimeric human/murine HER-3 ECD Fc fusion (murine; human, UniProt Q61526 20-632).
T2 construct: also called chL2-S2-Fc; chimeric ECD comprising murine L1-S1 domains and human L2-S2 domains; not shown: murine IgG2A hinge, CH2, and CH3 region (pmuFc2ANL vector)
T2 chain: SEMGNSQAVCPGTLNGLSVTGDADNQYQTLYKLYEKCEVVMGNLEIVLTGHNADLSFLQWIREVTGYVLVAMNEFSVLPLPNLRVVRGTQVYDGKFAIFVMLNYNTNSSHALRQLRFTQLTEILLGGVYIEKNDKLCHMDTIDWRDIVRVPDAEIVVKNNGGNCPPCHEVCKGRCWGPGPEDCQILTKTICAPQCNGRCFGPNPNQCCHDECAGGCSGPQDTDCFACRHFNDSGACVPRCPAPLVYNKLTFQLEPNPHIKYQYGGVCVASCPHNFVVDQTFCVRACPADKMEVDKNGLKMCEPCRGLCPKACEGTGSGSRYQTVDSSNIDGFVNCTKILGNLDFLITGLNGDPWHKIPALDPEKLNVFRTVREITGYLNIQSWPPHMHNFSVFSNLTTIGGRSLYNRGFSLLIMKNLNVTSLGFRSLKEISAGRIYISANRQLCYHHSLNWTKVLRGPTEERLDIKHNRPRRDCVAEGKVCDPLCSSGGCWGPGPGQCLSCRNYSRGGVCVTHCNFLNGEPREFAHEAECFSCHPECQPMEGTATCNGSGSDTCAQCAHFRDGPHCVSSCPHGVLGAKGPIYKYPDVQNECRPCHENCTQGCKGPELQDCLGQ
Put plainly: ELISA on chL2-S2 Fc.

B1: huHER3-10 antibody (antibody, V domains shown)
VH: QVQLVQSGPEVVKPGVSMKISCKASGYTFTDYTMNWVKQSPGQNLEWIGLINPYNDITAYNQKFQGKATLSVDKSSSTAYMELLSLTSEDSAVYYCARRGPRGAWFAYWGQGTLVTVSA
VL: DIVLTQSPASLAVSPGQRATISCRASTSVYNYGNSFMHWYQQMPGQPPKLLIYLASNLESGVPARFSGSGSRTDFTLTIDPVEANDAATYYCQQNSEDPWTFGQGTKLEIKR
notes: Recombinant humanized antibody with human constant regions; also called huHer-10; humanized (resurfaced) HER3-10
Take B1: the binding result in experiment [1] is reported as “binds”; in experiment [2], “no binding”.

These data come from patent publication WO2012019024A2 (dated 2012).
